For orientation: stoichiometry N means a count of units in the complex or per binding partner.

This is an account of results in article PMC3686320 (Biochemistry, 2013).

Common to all, as to assay: AUC
Data set [1] concerns the molecule itself.
Data set [2] concerns the molecule itself. The source holds these as a separate data set.
Data set [3] deals with the molecule itself. The source holds these as a separate data set.

Where two headings read alike, the source gives them in different places.

B1: isolated N-terminal core domain of the DnaT protein (domain or fragment, E. coli, UniProt P0A8J2 1-161, looked up)
chain: MSSRVLTPDVVGIDALVHDHQTVLAKAEGGVVAVFANNAPAFYAVTPARLAELLALEEKLARPGSDVALDDQLYQEPQAAPVAVPMGKFAMYPDWQPDADFIRLAALWGVALREPVTTEELASFIAYWQAEGKVFHHVQWQQKLARSLQIGRASNGGLPKR
Consider B1, for which the “stoichiometry N” value in data set [1] is 2.

B2: fluorescein-labeled N-terminal core domain of the DnaT variant S3C (domain or fragment, E. coli, UniProt P0A8J2 1-161, looked up)
chain: MSCRVLTPDVVGIDALVHDHQTVLAKAEGGVVAVFANNAPAFYAVTPARLAELLALEEKLARPGSDVALDDQLYQEPQAAPVAVPMGKFAMYPDWQPDADFIRLAALWGVALREPVTTEELASFIAYWQAEGKVFHHVQWQQKLARSLQIGRASNGGLPKR
modifications: fluorescein (fluorescein maleimide) on the cysteine that replaces serine 3
B2: the “stoichiometry N” value in data set [2] is 2.

B3: Escherichia coli primosomal DnaT protein, wild type (natural protein, E. coli, UniProt P0A8J2 1-179, looked up)
chain: MSSRVLTPDVVGIDALVHDHQTVLAKAEGGVVAVFANNAPAFYAVTPARLAELLALEEKLARPGSDVALDDQLYQEPQAAPVAVPMGKFAMYPDWQPDADFIRLAALWGVALREPVTTEELASFIAYWQAEGKVFHHVQWQQKLARSLQIGRASNGGLPKRDVNTVSEPDSQIPPGFRG
Turning to B3, in data set [3], the “stoichiometry N” value stood at 3.
